For the first data set, the target named is IMP-1 (IGF2BP1) (Homo sapiens) (UniProt Q9NZI8). In words: pulldown. The settings on record: RIP-microarray, A549 cells.
Sequence of IMP-1 (IGF2BP1) (Homo sapiens) (Q9NZI8 whole entry): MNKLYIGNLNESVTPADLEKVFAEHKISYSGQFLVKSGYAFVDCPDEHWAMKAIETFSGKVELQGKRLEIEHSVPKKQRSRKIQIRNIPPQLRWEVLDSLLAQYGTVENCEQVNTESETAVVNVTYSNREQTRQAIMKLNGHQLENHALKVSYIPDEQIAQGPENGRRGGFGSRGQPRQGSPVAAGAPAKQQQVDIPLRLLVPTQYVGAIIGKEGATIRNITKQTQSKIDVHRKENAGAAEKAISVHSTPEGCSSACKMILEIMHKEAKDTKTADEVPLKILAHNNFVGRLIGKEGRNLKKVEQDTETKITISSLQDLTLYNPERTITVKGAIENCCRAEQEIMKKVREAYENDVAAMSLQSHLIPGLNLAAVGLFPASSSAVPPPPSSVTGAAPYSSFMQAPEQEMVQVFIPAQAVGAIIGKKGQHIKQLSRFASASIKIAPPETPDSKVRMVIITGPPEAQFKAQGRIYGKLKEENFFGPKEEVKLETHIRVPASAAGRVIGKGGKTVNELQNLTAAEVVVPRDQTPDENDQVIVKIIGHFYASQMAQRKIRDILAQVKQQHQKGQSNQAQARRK
Turning to L3MBTL3 mRNA, the binding signal (fold IP/total RNA) came to 3.19.
PDF mRNA: the binding signal (fold IP/total RNA) stood at 4.18.
MGC27277 mRNA showed a binding signal (fold IP/total RNA) of 3.43.
RAN mRNA gave a binding signal (fold IP/total RNA) of 81.9.
YTHDF1 mRNA showed a binding signal (fold IP/total RNA) of 7.99.
Substance LASP1 mRNA yielded a binding signal (fold IP/total RNA) of 2.66.
The same measure, in the same setting: the figure for UBE2S mRNA is 6.78; for HMBS mRNA it is 2.48; for DDX1 mRNA it is 34.2.
The same measure, in the same setting: the figure for SYNJ2 mRNA is 2.56; for LPGAT1 mRNA it is 3.14.
On the same count and under the same terms, the figure for RNF20 mRNA is 2.01; for CRYAA mRNA it is 9.77; for C20orf142 mRNA it is 3.21.
For C17orf39 mRNA, the binding signal (fold IP/total RNA) was determined as 2.57.
Same read-out and setting: the figure for SYNGR3 mRNA is 12.3; for CPSF6 mRNA it is 2.24.
Still for that read-out and setting: the figure for PTP4A1 mRNA is 3; for AMIGO2 mRNA it is 5.65.

The data set is the same for the next values; noted with them: RNA immunoprecipitation (FLAG then HA) and cDNA microarray, A549 cells.
The substance SMAD3 mRNA came in with a binding signal (fold IP/total RNA) of 720.
